Assay results as given in paper PMC3324469, “Preparation and Characterization of the Extracellular Domain of Human Sid-1” (PLoS ONE, 2012).
Several values for one entry are separate records, joined by “and”; a condition that tells them apart may be missing. Equal values may be shown once.

Biological target: the molecule itself
Experiment: SEC; Superdex 200; concentrated protein applied directly to the column, no pre-incubation period; masses estimated against molecular weight standards

B1: extracellular domain of human SidT1 (SidT1 ECD), glycosylated, secreted from insect cells (domain or fragment)
chain: GAASPGHPAKSPRQPPAPRRDPFDAARGADFDHVYSGVVNLSTENIYSFNYTSQPDQVTAVRVYVNSSSENLNYPVLVVVRQQKEVLSWQVPLLFQGLYQRSYNYQEVSRTLCPSEATNETGPLQQLIFVDVASMAPLGAQYKLLVTKLKHFQLRTNVAFHFTASPSQPQYFLYKFPKDVDSVIIKVVSEMAYPCSVVSVQNIMCPVYDLDHNVEFNGVYQSMTKKAAITLQKKDFPGEQFFVVFVIKPEDYACGGSFFIQEKENQTWNLQRKKNLEVTIVPSIKES
modifications: N-linked glycosylation (sites not given)
notes: N-terminal glycine appendage left from the TEV protease site; human SidT1 (Sid-1 homolog), extracellular domain, residues 19-304 of Entrez Protein AAI17223, after signal peptidase and TEV cleavage; also called SidT1 extracellular domain; recombinant SidT1 ECD; source: Tni (usually) or Sf9 insect cells, baculovirus, secreted into the medium; not shown: His6, N-terminal, cleaved
stoichiometry N: 2 and 4
